Article PMC7577971

Biological target: CR3022/S1 complex (one monomer of the spike ectodomain with one bound CR3022 Fab) (SARS-CoV-2 | human) (UniProt P0DTC2)
Test: cryo-EM structure

CR3022/S1 complex (one monomer of the spike ectodomain with one bound CR3022 Fab) (from UniProt P0DTC2 14-1208)
stoichiometry N: 2
